# T1: SAP1 (UniProt P28324 1-93)
# T1 sequence: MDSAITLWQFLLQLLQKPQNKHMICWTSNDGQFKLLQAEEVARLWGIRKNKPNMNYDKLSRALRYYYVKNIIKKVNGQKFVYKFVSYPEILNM
# B1: 27 (dsDNA)
# DNA 1: GACAGCATGTG
# DNA 2: CACATGCTGTC
# B2: 26 (dsDNA)
# DNA 1: GACAGGATGTG
# DNA 2: CACATCCTGTC
# Tests used:
# SAP1 = target: T1, SAP1; test: BLI; BLI on streptavidin biosensors; buffer with NaCl (concentration not in material), 0.01 mM EDTA, 0.05% Tween 20; pH and temperature not in material; details: protein: recombinant, label: biotin
# PU.1 = PU.1 (UniProt P17947 165-270); test: as above
binder,measurement,setting,value
B1,binding result,SAP1; duplex,no binding
same,Kd,PU.1,1600 nM
B2,Kd,"SAP1; 11-bp duplex, hybridized on immobilized ssDNA",1080 ± 6 nM
same,Kd,PU.1,330 nM
